The values below come from patent US8530235B2, “Medium that supports culture of an oocyte and modulation of granulosa cell apoptosis” (Adelaide Research & Innovation Pty Ltd., priority 2005, dated 2013).

Test [1] concerns cumulus expansion of oocytectomised (OOX) complexes. The test can be described thus: FSH-induced cumulus expansion score of OOX complexes. The conditions noted are these: score 0 (no expansion) to +4 (maximum expansion); mean ±SEM; OOX complexes with FSH. The class given is cell-based, mice. As for the experimental part:
Members of the TGF-β superfamily are prime candidates for the mouse cumulus expansion-enabling factor (CEEF). This study was conducted to examine TGF-β superfamily processes regulating cumulus expansion. COCs were collected from eGG-primed mice and the oocyte microsurgically removed to generate oocytectomised (OOX) complexes. […] The type-I receptors for GDF9 and […] are ALK5 and ALK4, respectively. We tested the ability of an ALK4/5/7 kinase inhibitor to neutralize cumulus expansion.

The next test has as its system cumulus-oocyte complexes. The test can be described thus: Study V: oocyte IVM with GDF9, cumulus expansion and embryo development. The class given is cell-based, mice. To be noted: 200 ng/ml GDF9 with FSH/EGF. On the procedure: Oocytes (n=1106) were then fertilised and cultured to the blastocyst stage in G1.2/G2.2 medium at 37° C. in 6% CO2 5% O2. Blastocysts were pooled and either transferred to pseudo-pregnant Swiss females or differentially stained. Pregnancy outcome was assessed on Day 15 of pregnancy.

B1: GDF-9: Recombinant mouse GDF-9 produced in-house in transfected 293H cells, partially purified by HIC (protein, UniProt Q07105 307-441, looked up)
Growth/differentiation factor …: GQKAIRSEAKGPLLTASFNLSEYFKQFLFPQNECELHDFRLSFSQLKWDNWIVAPHRYNPRYCKGDCPRAVRHRYGSPVHTMVQNIIYEKLDPSVPRPSCVPGKYSPLSVLTIEPDGSIAYKEYEDMIATRCTCR
As for B1, in test [1], the cumulus expansion score was found to be 3.7±0.1. The “fertilisation, rate of development or blastocyst percentages” value in the test with cumulus-oocyte complexes is reported as “no significant effect”. The “blastocyst total cell number” value with cumulus-oocyte complexes (P=0.05) was “significantly increased”. The molecule further displayed a cumulus expansion index in the test on cumulus-oocyte complexes (vs 2.4±0.1) of 3.1±0.1. Besides, the blastocyst percentages in the test with cumulus-oocyte complexes (vs 75%, no significant effect) was found to be 83%.
